In patent US20230220038A1, “BRI2 BRICHOS DOMAIN FOR DELIVERY OF PROTEINS INTO CNS NEURONS” (ALPHABETA AB, priority 2021, published 2023):

B1: rh Bri2 BRICHOS-AU1: Rh Bri2 BRICHOS domain, residues 113-231 of Bri2, linked to an AU1 tag at the C-terminal end (SEQ ID NO: 11) (protein, listed as Homo sapiens)
chain: GSQTIEENIKIFEEEEVEFISVPVPEFADSDPANIVHDFNKKLTAYLDLNLDKCYVIPLNTSIVMPPRNLLELLINIKAGTYLPQSYLIHEHMVITDRIENIDHLGFFIYRLCHDKETYKLDTYRYI
modifications: DOMAIN 3..121 Rh Bri2 BRICHOS domain; DOMAIN 122..127 AU1 tag
B2: Bri2 BRICHOS monomers: recombinant human Bri2 BRICHOS (113-231) wild-type, monomeric species (SEQ ID NO: 2) (protein, listed as Homo sapiens)
chain: QTIEENIKIFEEEEVEFISVPVPEFADSDPANIVHDFNKKLTAYLDLNLDKCYVIPLNTSIVMPPRNLLELLINIKAGTYLPQSYLIHEHMVITDRIENIDHLGFFIYRLCHDKETYKL
B3: Bri2 BRICHOS crude: recombinant human Bri2 BRICHOS (113-231) wild-type, crude solution (protein, UniProt Q9Y287 113-231, looked up, fragment)
chain: B2 chain
B4: Bri2 BRICHOS oligomers: recombinant human Bri2 BRICHOS (113-231) wild-type, oligomeric species (protein, UniProt Q9Y287 113-231, looked up, fragment)
chain: B2 chain
modifications: oligomers
notes: recombinant human Bri2 BRICHOS (113-231) wild-type, oligomeric species
B5: NT-Bri2 BRICHOS: rh fusion protein: NT* solubility tag followed by human Bri2 residues 113-231 (protein, UniProt Q9Y287 113-231, looked up, fragment)
chain: B2 chain
modifications: NT* spider silk solubility tag

Experiments:
wild type mice = details: mouse, in vivo, iv, 10 mg/kg
Protocol: Two different types of commercially available microbubbles, either Definity® (Lantheus Medical Imaging, MA, USA) or SonoVue® (Bracco, Milan, Italy) were administered at a dose of 5 μl/g body weight. For one part of the study (FIG. 3A), a total of […] mice were divided into four groups that received, respectively, i.v. injections of microbubbles and PBS (n=4), microbubbles and 1 (n=4), 10 (n=6) or 20 (n=4) mg/kg body weight of rh Bri2 BRICHOS-AU1 (SEQ ID NO: 11). In the second part of the study (FIG. 3B), a total of 3 mice were administered 20 mg/kg rh Bri2 BRICHOS-mCherry (SEQ ID NO: 12) (n=1) or microbubbles+20 mg/kg rh Bri2 BRICHOS-mCherry (n=2) intravenously. […]
96-well plates (Nunc MicroWell™) were coated with anti Bri2 BRICHOS capture antibody diluted in coating buffer (50 mM carbonate pH 9.6) and incubated overnight at 4° C. […] The reaction was stopped by adding stop solution for TMB substrates (Thermo Fisher) and absorbance was measured at 450 nm, using the values for brain homogenates from the non-treated mouse as blank. […]
Calculation of concentrations and total amounts of rh Bri2 BRICHOS-AU1 in each brain hemisphere was assessed by assuming a brain density of […], an average brain hemisphere weight of 225 mg and average of total protein in brain hemisphere homogenates of 25.6 mg.

SH-SY5Y cells [1] = assay: Cell uptake by western blot, SH-SY5Y; type: cell-based, human; details: 24 h incubation, western blot band intensities of cell lysate
hCMEC/D3 cells [2] = assay: Cell uptake by western blot, hCMEC/D3; type: cell-based, human; details: hCMEC/D3, 2 h and 24 h, western blot of cell lysate
Protocol: Once confluent, the hCMEC/D3 cells were treated with 1 μM rh Bri2 BRICHOS monomers, oligomers or proSP-C monomers for 2 h and 24 h. […] Untreated cells were used as control. After the treatment, the cells were lysed as described for the HEK-293 cells.

SH-SY5Y cells [3] = test system: SH-SY5Y cells
Protocol: Human neuroblastoma (SH-SY5Y) cell line (ATCC, Manassas, Va.) was grown in Dulbecco's Modified Eagle's Medium (DMEM, PAN-Biotech, Germany) with 4.5 g/L glucose, glutamine (2 mM) and 3.7 g/L NaHCO3, supplemented with 10% Fetal Bovine Serum (FBS, Sera Plus, PAN-Biotech, Germany) and penicillin-streptomycin (100 IU/ml, 100 μg/ml) in TC-coated T75 tissue culture flasks.
(§1) Cell viability was assessed by tetrazolium-based Thiazolyl Blue Tetrazolium Bromide (MTT) assay. For the MTT assay, 50 000 cells/cm^2 were seeded onto clear 96-well plates (TC, Cellstar, Greiner Bio-One, Austria) and grown until confluent, after which the cells were treated with the rh BRICHOS domains in 8 replicates for 24 h in a humidified atmosphere (5% CO2/95% air) at 37° C. Treated cells were incubated with 0.5 mg/ml MTT (Sigma-Aldrich, St. Louis, Mo.) solution in FBS-free cell media for 4 h in a humidified atmosphere (5% CO^2/95% air) at 37° C. The MTT solution was removed and the formazan crystals were dissolved in Dimethyl sulfoxide (DMSO, Sigma-Aldrich, St. Louis, Mo.) and incubated with shaking for 15 min. Absorbance was measured at 570 nm using a FLUOstar OPTIMA microplate reader (BMG Lab Tech, Germany). Untreated cells were used as positive control, and media without cells was used as a negative control. Also 2 μM Staurosporine from Streptomyces sp. (SP, Sigma-Aldrich, St. Louis, Mo.) was used as a negative control.

hCMEC/D3 cells [4] = test system: hCMEC/D3 cells
Protocol: hCMEC/D3 cells (MilliporeSigma, Burlington, Mass.) were cultivated in EndoGRO-MV Complete Media (MilliporeSigma, Burlington, Mass.), supplemented with 1 ng/ml recombinant human fibroblast growth factor basic (FGF-2, Gibco, Invitrogen, Waltham, Mass.) and penicillin-streptomycin (100 IU/ml, 100 μg/ml, Gibco, Thermo Fisher Scientific, Waltham, Mass.) in T75 tissue culture flasks (TC-coated, DeltaLab, Spain) coated with 5-10 μg/cm^2 rat tail collagen type I (MilliporeSigma, Burlington, Mass.).
as §1

hCMEC/D3 monolayer = test system: hCMEC/D3 monolayer
Protocol: For the preparation of the hCMEC/D3 cell monolayers, transwell ethylene terephthalate (PET) membrane inserts (24-well, clear, pore size 0.4 μm, CellQART, SABEU GmbH & Co. KG, Germany) were coated with rat tail type I collagen (150 μg/ml in 1× Dulbecco's Phosphate-buffered saline pH 7.4, 1×DPBS, Gibco, Thermo Fisher Scientific, Waltham, Mass.) for 2 h at 37° C. […] Media was changed every second day and the cell monolayer was established by day 6.
Experiments were conducted on culture day 6 by adding different BRICHOS protein constructs, or relevant controls to the apical side of the hCMEC/D3 monolayer. […] After the incubation, medium on the apical and basolateral sides of the monolayer was removed and analyzed by Western blotting and the band intensities measured by ImageJ. […] For mCherry and mCherry-Bri2 BRICHOS monomers, fluorescence intensity of the apical and basolateral medium was recorded at λex 570 nm and λem 610 nm, after which the cells were fixed and analyzed by fluorescence microscopy to analyse the uptake of mCherry or mCherry-Bri2 BRICHOS into cells.
FITC fluorescence was measured at λex 492 nm and λem 518 nm. Insulin permeability was determined by western blot and an anti-Insulin monoclonal primary antibody (Sigma, St. Louis, Mo.) at 1:1000 dilution. […]

Molecule	percent of the total amount administered detected in the brain (wild type mice) [%]	cell uptake, result in words (SH-SY5Y cells [1])	cell uptake, result in words (hCMEC/D3 cells [2])	toxicity / cell mitochondrial activity, result in words (SH-SY5Y cells [3])	toxicity / cell mitochondrial activity, result in words (hCMEC/D3 cells [4])	hCMEC/D3 monolayer permeability, result in words (hCMEC/D3 monolayer)
B1	1					
B2		linear uptake	taken up	no toxicity	no toxicity	
B3				slight decrease in the cell mitochondrial activity	slight decrease in the cell mitochondrial activity	
B4		detected in the cell lysate to a lesser degree	seem not to be taken up	slight decrease in the cell mitochondrial activity	slight decrease in the cell mitochondrial activity	
B5						only the monomers show permeability
